The results in this text go back to patent US20090075291A1 (RESEARCH FOUNDATION OF STATE UNIVERSITY OF NEW YORK, published 2009).

Positions count from the first letter of the chain named.

Test [1] deals with T1, Recombinant Cx43CT (carboxyl terminal domain of rat connexin43, residues 255-382, preceded by GPLG) (rat, UniProt P08050 255-382).
T1 construct: range 255-382; Made in E. coli as a GST fusion (pGEX-6P-2) and cleaved from GST; the protein used was derived from rat cDNA; 15N-labeled for NMR; also called recombinant CT; 15N-Cx43CT
Briefly: SPR, Cx43CT immobilized on carboxymethyl dextran. How it is done: Recombinant Cx43CT was covalently bound to a carboxylmethyl dextran matrix (Salamon et al., “Surface Plasmon Resonance Spectroscopy as a Tool for Investigating the Biochemical and Biophysical Properties of Membrane Protein Systems. II: Applications to Biological Systems,” Biochim. Biophys. Acta 1331(2):131-152 (1997), which is hereby incorporated by reference in its entirety). Specific peptides were presented and, when feasible, dissociation constants (KD) were calculated from the time course of binding and unbinding of the ligand, using a 1:1 (Langmuir) association and dissociation kinetic model (Biacore software package). In both phases (association and dissociation), the first 5-8 seconds of recording were not included in the fit, to avoid artifacts resulting from peptide distribution within the flow cells (Lang et al., “Surface Plasmon Resonance as a Method to Study the Kinetics and Amplitude of Protein-protein Binding,” in PRACTICAL METHODS IN CARDIOVASCULAR […] 936-947 (Stefan Dhein, Friedrich Wilhelm Mohr & Mario Delmar eds., 2005), which is hereby incorporated by reference in its entirety).
Phage display allows for the rapid screening of thousands of peptides, but the characteristics of binding cannot be properly defined. Furthermore, the peptides are part of a capsid protein, which may affect the ability of the peptide to properly interact with the target protein. Therefore, some of the peptides identified by the phage screening were selected to, using SPR, further characterize their ability to bind Cx43CT. Recombinant Cx43CT was covalently bound to a carboxymethyl dextran matrix and synthetic peptides presented for binding. A total of six 12-mer peptides from the non-biased screening (peptides labeled RXP1 to RXP6 in Table 1) and 5 peptides from the biased screening (labeled RXP-A to RXP-E in Table 3) were tested. […] Peptide RXP4 (SEQ ID NO:15) caused the largest deflection in SPR signal. RXP4 (250 μM) was added at time “zero.” Washout was initiated after two minutes of exposure.

Test [2] concerns the target Cx43 expressed in N2a cells (Cx43 gap junction channels). Kind of test: cell-based or functional assay.
Test [3] concerns the target T1, Recombinant Cx43CT (carboxyl terminal …). Kind of test: SPR, Cx43CT immobilized, 1:1 Langmuir kinetic fit, pH 6.5 and 7.4. Here is the method: A total of six 12-mer peptides from the non-biased screening (peptides labeled RXP1 to RXP6 in Table 1) and 5 peptides from the biased screening (labeled RXP-A to RXP-E in Table 3) were tested. […] Peptide RXP4 (SEQ ID NO:15) caused the largest deflection in SPR signal. RXP4 (250 μM) was added at time “zero.” Washout was initiated after two minutes of exposure. […] Higher concentrations of the peptide were tested but an asymptotic maximum response could not be detected. In addition, dissociation rates were too fast to reliably use them to calculate the kinetics of binding.
A different result emerged from the testing of the doublets. […] In contrast, peptide RXP-E (SEQ ID NO:10) generated a large, concentration-dependent deflection followed by a slow dissociation upon washout, as shown in FIG. 3B. The transitions were well-fit by exponential functions and the rates of association and dissociation were used as described in Example 4 to estimate the kinetic parameters. A full range of concentrations was tested in three separate occasions and at two different pHs of the solvent (6.5 and 7.4). No differences were observed as a function of pH.

Test [4] deals with T2, Cx43 from rat heart lysate (rat, UniProt P08050 2-382).
T2 construct: Native protein pulled down from a tissue lysate; also called cardiac Cx43
Kind of test: Cx43 pulldown assay, percent binding relative to RXPE; Example 19 does not state the source of Cx43.

Test [5] addresses T1, Recombinant Cx43CT (carboxyl terminal …). Kind of test: SPR, peptide 1.0 mM.

T2 sequence (P08050 2-382 limits assumed): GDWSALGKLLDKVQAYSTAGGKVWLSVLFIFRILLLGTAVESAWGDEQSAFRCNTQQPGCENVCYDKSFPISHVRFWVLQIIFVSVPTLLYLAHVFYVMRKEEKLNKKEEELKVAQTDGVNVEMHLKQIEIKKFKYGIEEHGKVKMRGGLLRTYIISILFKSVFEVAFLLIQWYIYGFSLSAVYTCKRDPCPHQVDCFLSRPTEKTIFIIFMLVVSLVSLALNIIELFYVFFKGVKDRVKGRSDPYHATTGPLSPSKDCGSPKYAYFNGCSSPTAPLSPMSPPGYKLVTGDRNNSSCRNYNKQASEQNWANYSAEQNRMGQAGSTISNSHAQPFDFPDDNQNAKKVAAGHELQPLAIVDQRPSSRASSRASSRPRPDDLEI
T1 sequence (P08050 other isoform, or with tags, fused parts or gaps limits assumed): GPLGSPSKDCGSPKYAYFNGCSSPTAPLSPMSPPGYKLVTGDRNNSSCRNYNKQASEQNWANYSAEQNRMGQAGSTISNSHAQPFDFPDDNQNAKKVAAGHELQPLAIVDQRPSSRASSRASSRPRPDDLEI

B1: RXP-D (peptide)
peptide: WEEPRRPFTMSGGGSAETHARVPFYSHSPMRHRLPGVHL
notes: Synthetic doublet peptide from the biased phage display screen
In the case of B1, the binding result in test [1] is “no binding”.

B2: RXP-E (peptide)
peptide: SDDLRSPQLHNGGGSAVPFYSHSHMVRRKPRNPR
notes: as for B1
Consider B2, for which, in test [2], the “junctional conductance (Gj) relative to control at pipette pH 6.2 (acidification-induced uncoupling)” value is 57 % of control and the “junctional conductance (Gj) relative to control during octanol superfusion” value was 57.6 % of control. Moreover, in test [3], the Kd turned out to be 3.9 µM.

B3: 58 (peptide)
peptide: B2 peptide with R5A, P7A, R31A, P33A
notes: also called RXPE mutant (5,7,31,33pa)
For the molecule B3, the binding result in test [4] is recorded as “no binding”.

B4: 31 (peptide)
peptide: B2 peptide with R5A, P7A, P30A, R31A
notes: also called RXPE mutant (5,7,30,31A)
B4: in test [4], the binding result is listed as “no binding”.

B5: 29 (peptide)
peptide: B2 peptide with R31A, P33A
notes: also called RXPE mutant (31,33A)
Turning to B5, in test [4], the binding result is “no binding”.

B6: Peptide 2503, AcRRKPRRKP-NH2 (peptide)
peptide: Ac-RRKPRRKP-NH2
In the case of B6, the “Response Dose” value in test [5] is 295 arbitrary units.

B7: RXP-B (peptide)
peptide: EIQPRSPLMFSGGGSAHARVPFYSHSAKEARWPRAHR
notes: as for B1
On to B7, for which, in test [1], the binding result is on record as “no binding”.

B8: Peptide 2504, AcRRKP-NH2 (peptide)
peptide: Ac-RRKP-NH2
As for B8, in test [5], the “Response Dose” value is 46.5 arbitrary units.

B9: Peptide 2505, AcRRNP-NH2 (peptide)
peptide: Ac-RRNP-NH2
In the case of B9, the “Response Dose” value in test [5] came out at 34.9 arbitrary units.

B10: RXP-C (peptide)
peptide: GIAAREPNSHDGGGSAHARVPFYSHSRDLWRKPAKSL
notes: as for B1
As for B10, the binding result in test [1] was “no binding”.

B11: Peptide 2501, AcRNPRNP-NH2 (peptide)
peptide: Ac-RNPRNP-NH2
For the molecule B11, the “Response Dose” value in test [5] came to 24.8 arbitrary units.

B12: RXP-A (peptide)
peptide: DVPGRDPGYIKGGGSAHARVPFYSHSLNRNRKPSLYQ
notes: as for B1
Consider B12, for which the binding result in test [1] is on record as “no binding”.
